Patent publication US20160355564

Tested on: recombinant proinsulin protein

## tissue transglutaminase
  substrate of the deamidase in test tube: recombinant proinsulin protein was shown to be a substrate for TG2
